Data published in patent US9144596.

Tests used:
[1] = test system: wild-type APC peptide (1250-KVSSINQETIQTYCVEDTPI-1269)
[2] = test system: mutant (I-A,Y-A) APC peptide (1250-KVSSINQETAQTACVEDTPI-1269)

For “His-tagged pol-βwt protein (human pol-β, carboxyl-terminal hexahistidine tag, pET23d)”, the “dRP-lyase activity of pol-βwt (3'-end labeled U-DNA substrate)” value [1] was “a very efficient dRP-lyase activity of pol-βwt ..., which was blocked by APCwt peptide in a dose-dependent manner” and the “dRP-lyase activity of pol-βwt (3'-end labeled U-DNA substrate)” value [2] was “APC(I-A,Y-A) did not show any effect on the dRP-lyase activity of pol-βwt”.
